{"source": "paper PMC2577339", "about": "(Nucleic Acids Research, 2008)", "proteins": {"B1": {"name": "Topoisomerase IIα (enzyme)", "chain": "MEVSPLQPVNENMQVNKIKKNEDAKKRLSVERIYQKKTQLEHILLRPDTYIGSVELVTQQMWVYDEDVGINYREVTFVPGLYKIFDEILVNAADNKQRDPKMSCIRVTIDPENNLISIWNNGKGIPVVEHKVEKMYVPALIFGQLLTSSNYDDDEKKVTGGRNGYGAKLCNIFSTKFTVETASREYKKMFKQTWMDNMGRAGEMELKPFNGEDYTCITFQPDLSKFKMQSLDKDIVALMVRRAYDIAGSTKDVKVFLNGNKLPVKGFRSYVDMYLKDKLDETGNSLKVIHEQVNHRWEVCLTMSEKGFQQISFVNSIATSKGGRHVDYVADQIVTKLVDVVKKKNKGGVAVKAHQVKNHMWIFVNALIENPTFDSQTKENMTLQPKSFGSTCQLSEKFIKAAIGCGIVESILNWVKFKAQVQLNKKCSAVKHNRIKGIPKLDDANDAGGRNSTECTLILTEGDSAKTLAVSGLGVVGRDKYGVFPLRGKILNVREASHKQIMENAEINNIIKIVGLQYKKNYEDEDSLKTLRYGKIMIMTDQDQDGSHIKGLLINFIHHNWPSLLRHRFLEEFITPIVKVSKNKQEMAFYSLPEFEEWKSSTPNHKKWKVKYYKGLGTSTSKEAKEYFADMKRHRIQFKYSGPEDDAAISLAFSKKQIDDRKEWLTNFMEDRRQRKLLGLPEDYLYGQTTTYLTYNDFINKELILFSNSDNERSIPSMVDGLKPGQRKVLFTCFKRNDKREVKVAQLAGSVAEMSSYHHGEMSLMMTIINLAQNFVGSNNLNLLQPIGQFGTRLHGGKDSASPRYIFTMLSSLARLLFPPKDDHTLKFLYDDNQRVEPEWYIPIIPMVLINGAEGIGTGWSCKIPNFDVREIVNNIRRLMDGEEPLPMLPSYKNFKGTIEELAPNQYVISGEVAILNSTTIEISELPVRTWTQTYKEQVLEPMLNGTEKTPPLITDYREYHTDTTVKFVVKMTEEKLAEAERVGLHKVFKLQTSLTCNSMVLFDHVGCLKKYDTVLDILRDFFELRLKYYGLRKEWLLGMLGAESAKLNNQARFILEKIDGKIIIENKPKKELIKVLIQRGYDSDPVKAWKEAQQKVPDEEENEESDNEKETEKSDSVTDSGPTFNYLLDMPLWYLTKEKKDELCRLRNEKEQELDTLKRKSPSDLWKEDLATFIEELEAVEAKEKQDEQVGLPGKGGKAKGKKTQMAEVLPSPRGQRVIPRITIEMKAEAEKKNKKKIKNENTEGSPQEDGVELEGLKQRLEKKQKREPGTKTKKQTTLAFKPIKKGKKRNPWSDSESDRSSDESNFDVPPRETEPRRAATKTKFTMDLDSDEDFSDFDEKTDDEDFVPSDASPPKTKTSPKLSNKELKPQKSVVSDLEADDVKGSVPLSSSPPATHFPDETEITNPVPKKNVTVKKTAAKSQSSTSTTGAKKRAAPKGTKRDPALNSGVSQKPDPAKTKNRRKRKPSTSDDSDSNFEKIVSKAVTSKKSKGESDDFHMDFDSAVAPRAKSVRAKKPIKYLEESDEDDLF"}}, "molecular_target": "the molecule itself", "test": "glycerol gradient sedimentation + SEC", "data": [{"protein": "B1", "values": [{"measurement": "stoichiometry N", "result": 2}]}]}
